Laboratory results published in patent US9925272B2, “Anti-theophylline antibodies and methods of use” (Hoffmann-La Roche Inc., priority 2012, dated 2018).
Changes are numbered by the printed parent chain. In names and notes the source's numbering stands. Read-outs that look alike come from different tables or passages of the source. Blank lines part the entries; values can stand above or below the molecule they belong to.

Legend:
[1] = Surface-plasmon-resonance (SPR) analysis of the affinity of antibody binding to theophylline
Source text: FIG. 3 Binding profiles of the theophylline binding antibodies in SPR experiments.
To determine the affinity of specific binding of the antibody to theophylline, surface-plasmon-resonance (SPR) analyses were applied.

[2] = ELISA for specific binding of the antibody to immobilized biotinylated theophylline; details: biotinylated theophylline 500 ng/mL on streptavidin plates; antibody 50-3000 ng/mL; anti-huFc Fab-HRP/ABTS, absorbance 405 nm
Protocol: To determine specific binding of the antibody by ELISA, Streptavidin coated ELISA plates were loaded with biotinylated theophylline (500 ng/mL in PBS) and incubated for 30 minutes at room temperature. After washing twice to remove unbound antigen, antibodies were added at concentrations between 50 and 3000 ng/mL (in PBS) and incubated for 30 minutes. After washing twice, bound antibody was detected with an anti-huFc Fab-HRP conjugate and ABTS substrate (with absorbance measurement at 405 nm).

[3] = read-out: calculated affinities (KD)

- ka [1]: 1.31E+05
- kd [1]: 0.002214
- Kd ([1]; read-out: KD): 17 nM
- Kd [1, 3]: 17 nM
- Kd ([1]; unit inferred, read-out: KD): 17 nM
B1: humanized antibody: humanized anti-theophylline antibody; VH SEQ ID NO: 12 (V71R), VL SEQ ID NO: 16 (R46L); human IgG1/kappa constant regions (antibody, V domains shown)
VH: QVQLQESGPGLVKPSQTLSLTCTVSGYSITSDYAWNWIRQHPGKGLEWIGYIRYSGHTGYNPSLKSRVTISRDTSKNQFSLKLSSVTAADTAVYYCARWVDYFDYWGQGTLVTVSS
VL: DVVMTQSPLSLPVTLGQPASISCRSSQSIVYNNRYTYLEWFQQRPGQSPRLLIYGVSNRFSGVPDRFSGSGSGTDFTLKISRVEAEDVGVYYCYQGTHAPYTFGQGTKLEIK
modifications: human IgG1/kappa constant regions; humanized VH; humanized VL
- binding to theophylline immobilized on the ELISA plate [2]: binds specifically and dose dependent to theophylline

- ka [1]: 1.12E+05
- kd [1]: 0.00228
- Kd ([1]; read-out: KD): 20.3 nM
- Kd [1, 3]: 20 nM
- Kd ([1]; unit inferred, read-out: KD): 20.3 nM
B2: murine antibody: murine anti-theophylline antibody, IgG1 kappa, from mouse hybridoma; VH SEQ ID NO: 04, VL SEQ ID NO: 08 (antibody, listed as Mus musculus, V domains shown)
VH: DVQLQESGPGLVKPSQSLSLTCAVTGYSITSDYAWNWIRQFPGNRLEWMGYIRYSGHTGYNPSLKSRISITRDTFKNQFFLQFNSVTTEDTATYYCARWVDYFDYWGQGTTLTVSS
VL: B1 VL with T14S, Q17D, P18Q, Q42V, R44K, P49L, R50K, V88M, Q105G
